From the nanobody polyreactivity screen of Harvey et al. (2022)

Assay: yeast display, Sf9 membrane polyspecificity reagent, FACS + sequencing; frameworks hold sequencing errors
Outline: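 A nanobody's polyreactivity label depends on the gate it was sorted from. Yeast display cells were stained with 10% biotinylated, detergent-solubilized Sf9 membrane reagent for 1 hour at 4 °C, enriched on streptavidin microbeads and sorted by FACS. The low and high (top ~1%) gates were set on anti-HA fluorescence for expression and streptavidin fluorescence for reagent binding.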

Sequence | polyreactivity (PSR sort gate)
QVQLVESGGGLVQAGGSLRVSCAASGRTFIKYAMGWYRQAPGKERELVAAISRNGGSTNYADSVKGRFTISRDNAKNTVYFQMNSLKPEDTAVYYCAAVGTVSRTVGYNYWGQGTQVTVSS | high polyreactivity
QVQLVESGGGLVQAGGSLRVSCAASGRTFLSYTMGWYRPAPGKERQLVARISASGGSTYYADSVKGRFTISRDNAKITVYLQMNSLKPEDTAVYYCARVPYYLYYVTRPYDYWGQGTLVTVSS | low polyreactivity
QVQLVESGGGLVQAGGSLRVSCAASGSIFGPYAMGLYRQAPGKERELVATSTYYADSVKGRFTISRDNAKNTVYLQMHRLKPEDTAVYYCAKTPYYSGYGWGYDYWGQGTQVTVSS | low polyreactivity
QVQLVESGGGLVQAGGSLRVSCAASGSIFGTYAMGWYRPAPGKERELVAAITSDGVDTYYADSVKGRFTISRDNAKNTVYLQMNSLKPEDTEVYYCAAEYEGLYGYGYWGQGTQVTVSS | high polyreactivity
QVQLVESGGGLVQAGGSLRVSCAASGSIFKIYAMGWYRLAPGKERELVASITGSGGSTYYADSVKGRFTISRDNAKNTVYLQRNCLKPEDTAVYYCAAAVLGSSKSEVDPDRPEYYYWGQGTQVTVSS | low polyreactivity
QVQLVESGGGLVQAGGSLRVSCAASGSIFLIYGMGWYRQAPGKERELVAAITARGGSTYYADSVKGRFTISRDNAKNTVYLQMNSLKPEDTAVYYCNADGYPDVGAGTYGYWGLGTQVTVSS | low polyreactivity
QVQLVESGGGLVQAGGSLRVSCAASGSIFYTYVMGWYREAPGKERELVAAISGTGGRTYYADSVKGRFTISRDNAKNTVYLQMNSLKPEDTAVYYCAALYNRVNGHYYWGQGTQVTVSS | high polyreactivity
QVQLVESGGGLVQAGGSLRVSCAASGSSFTYNAMGWYRQAPGKERELVASINSRGGTTYYADSVKGRFTISRDNAKNTVYFQMNSLKPEDTAVYYCATDVYRLGEYDYWGQGTQVTVSS | low polyreactivity
QVQLVESGGGLVQAGGSLRVSCAASGSTFRHYAMGWSRQAPGKEWELVAAISSTGGSTYYADSVKGRFTISRDNAKNTVYLQMNSLKPEDTAVYYCAARRLYWGQGTQVTVSS | high polyreactivity
QVQLVESGGGLVQAGGSLRVSCAASGSTFTDYDMVWYRQAPGKERELVAAITSGGSTNYADSVKGRFTISRDNAKNTVYLHMNSLKPEDTAVYYCNAERDSPTLNLDRGWEYDYWGQGTQVTVSS | low polyreactivity
QVQLVESGGGLVQAGGSLRVSCAASGSTFTWYAMGWYRQAPGKVRELVAAIRWSGGNTYYADSVKGRFTISRDNAKNTVFLQMNSLKPEDTAVYYCNAYQYFPRYDYWGQGTQVTVSS | high polyreactivity
QVQLVESGGGLVQAGGSLRVSCAASGSTFYIYAMGWSRQAPGKERELVARISGSGGSTYYADSVKGRFTISRDYAKNTVYLLMNSLKPEDTAVYYCAADDIYKYYQYYAFPYSRYDYWGQGTQLTVSS | low polyreactivity
QVQLVESGGGLVQAGGSLRVSCAASGYTFLRYAMGWYRQAPGKERELVAAISWSTGSTYYADSVKGRFTISRDNAKNTVYLQMNSLKPEDTAVYYCAAAGRHSGGRFYYWGQGTQVTVSS | high polyreactivity
QVQLVESGGGLVQAGGSLRVSCAASVRTLFGNALGWYRQAPGKERELLAAISFSGGRTEYADSVKGRFTISRDNAMNTVYLQMNSLKPEDTAVYYCAARTYSAPRNRYYYWGQGTQVTVSS | high polyreactivity
QVQLVESGGGLVQAGGSLRVSCASSGRIFVYDMGWYRQAPGKERELVAAITRGGSTKYADSVKGRFTISRDNAKNTVFLQMNSLKPADTAVYYCAADTRRYRFYYWGQGTQVSVSS | high polyreactivity
QVQLVESGGGLVQAGGSLRVSCASSGSTFVSYAMVWYRQAPGKERELVASISGSDGRTYYADSVKGRFTISRDNAKNTVYLQMKSLNPEDTAVYYCAKRYWRHPVFYLYDYWVQGTQVTVSS | high polyreactivity
QVQLVESGGGLVQAGGSLRVSSAASGRIFSIYAMGWYRQAPGKERELVAAISFRGTSTYADSVKGRFTISRDNAKNTVYLQMNSLKPEDTAVYFCAVSGFDVLWPSLGGELDYWGQGTQVTVSS | low polyreactivity
QVQLVESGGGLVQAGGSLRVSSAASGSIFDYYEMGWYRQAPGKEREMVAAINISGGDTYYADSVKGRFTISRDNAKNTVYLQMNSLNPEDTAVYYCAADWVTWWFSRVGWDYGYWGQGTQVTVSS | low polyreactivity
QVQLVESGGGLVQAGGSLRYSCAASGSIFYWYAMGWDRQAPGKERELVAGITYSGGNTYYADSVKGRFTISRDNAKNTVYLQMNSLKPEDTAVYDCAATRGYWRKWRMDYWGQGTQVTVSS | high polyreactivity
QVQLVESGGGLVQAGGSLSISCAASGITLGHNAMGWYRQAPGKDRELVAAISWSGDRTFYADSVKGRFTISRDNAKNTVYLQMNSLKPEDTAVYYCNAEIGWHNEGRLSTYDYWGQGTQVTVSS | low polyreactivity
QVQLVESGGGLVQAGGSLSLICAASGRTFGPNTMGWYRQAPGKERELVAAITGSGGSTYYADSVKGRFTISRDNAKNTVYLQMNSLKPEDTAVYYCAKSVRYPASDYWGQGTQVTVSS | low polyreactivity
QVQLVESGGGLVQAGGSLSLSCAASGFIFGAYAMGWYRQAPRKERELVADITQNSGSTYYADSVKGRFTISRDNAKYTVYLQMNSVKPEVTAVYFCNADWETADDYWGQGTQVTVSS | low polyreactivity

Sequence | polyreactivity (PSR sort gate)
QVQLVESGGGLVQAGGSLSLSCAASGFIFGGYAMGWYRQAPGKERELVAAITWSGGNTYYADSVKGRFTISRDNAKNTVYLQMNSLKPEATAVYYCAADYWTKYVYWGQGTQVTVSS | low polyreactivity
QVQLVESGGGLVQAGGSLSLSCAASGFIFLGNAMGWYRQAPGKEREVVAAISSGGSTYADSVKGRFTISRDHAKNTVYLQMNSLKPEDTAVYYCAVDRAFRAQNYHEYDYWGQGSQVTVSS | low polyreactivity
QVQLVESGGGLVQAGGSLSLSCAASGFIFYRYAMGWYRQAPGKERELVAGISSRGGSTYYADSVKGRFTISRDNAKNTVYLQMNSLKPEDTAVYYCAKRPLTSNASQGDYWGQGTQVTVSS | high polyreactivity
QVQLVESGGGLVQAGGSLSLSCAASGFTFDYYAMGWYRQAPGKERELVAAISTSGGSTYYADSVKGRFTISRDNAMNTVYLQMNSLKPEDTAVYYCNVVFYEYSSVSYDYWGQGTQVTVSS | high polyreactivity
QVQLVESGGGLVQAGGSLSLSCAASGGIFARNVMGWYRQAPGKERELVADISGSGGSTYYADSVKGRFTISRDNAKNTVYLQMNSLKPEDTAVYYCAARTPGVSVYKDGYWGQGTQVTVSS | low polyreactivity
QVQLVESGGGLVQAGGSLSLSCAASGIFKYYMGWYRQAPGKERELVAGITKRGGSTYYADSVKGRFTISRDNAKNTVYLQKNSLKPEDTAVYYCNAVGPKRYDYWGQGTQVTVSS | high polyreactivity
QVQLVESGGGLVQAGGSLSLSCAASGIIFGSYAMGWYRQAPGKESELVAAITSRGSSTRYADSVKGRFTISRDNAKNTVYLQMNSLKPEDTAVYYCATKVVVAHLPGYYYWGQGTQVTVSS | high polyreactivity
QVQLVESGGGLVQAGGSLSLSCAASGIIFYDYAMGWYRQAPGKERELVAVISRSGGSTYYADSVKGRFTISRDNAKNTVYLQMNSLNPEDTAVYYCARAYSLRVVTGDYWGQGTQVTVSS | high polyreactivity
QVQLVESGGGLVQAGGSLSLSCAASGITFVFYTMGWYRQAPGKERELVAAISRSGASTYYADSVKGRFTISRDNAKNTVYLQMNSLKPQDTAVDYCAADRGYRFRMDYWGQGTQVTVSS | high polyreactivity
QVQLVESGGGLVQAGGSLSLSCAASGLILSDNAMGWYRQAPGKEREFVASITSSGGSTHYADSVKGRFTISRDNAKNTVYFQMNSLKPEDTAVYYCAKDYYEGDSYPYPGYEYWGQGTQVTVSS | low polyreactivity
QVQLVESGGGLVQAGGSLSLSCAASGLTFRSYTMGWYRQAPGKERELVAAISSGGSTYYADSVKGRFTISRDNAKNTVYLQMNSLKPEDTAVYYCAAPRGHGKYYSWGQGTQVTVSS | high polyreactivity
QVQLVESGGGLVQAGGSLSLSCAASGNTLYNYPMGSYRPAPGKERELVAAISLSGGSTYYADSVKGRFTISRDNAKNTVYLQMNSLKRVDTAVYYCDADIFYYSSSYGYWGQGTQVTVSS | low polyreactivity
QVQLVESGGGLVQAGGSLSLSCAASGPTFGEYVMGWYRQAPGKERELVASISRRGGSTYYADSVKGRFTISRDNAKNTVYLQMNSLKPEDTAVYYCAKYRTQWSKNLYPYGFDYWGQGTQVTVSS | low polyreactivity
QVQLVESGGGLVQAGGSLSLSCAASGRIFAYYAMGWYRQAPGKERELVAGISQRGSRTYYADSVKGRFTISRDNGKNTVYLQMNSLKPEDTAVYYCAARDRRSVTMDYWGQGTQVTVSS | high polyreactivity
QVQLVESGGGLVQAGGSLSLSCAASGRIFGYYAMGGYRQAPGKERELVAAITTGGNTYYAESVKGRFTISRDNAKNTVNLQMNSLKPEDTAVYYCNKRSYAYYSYAVFTWVDYWGQGTQVTVSS | low polyreactivity
QVQLVESGGGLVQAGGSLSLSCAASGRIFNRNAMGWYRQAPGKERELVASISSGGRTNYADSVKGRFTISRDNAKNTFYLQMNSLKPEDTAVYYCAAKSPRILLDYWGQGTQVTVSS | low polyreactivity
QVQLVESGGGLVQAGGSLSLSCAASGRIFRRYAMGWYRQAPWKERELVAAITWSGGSTYADSVKGRFTISRDNAKNTVYLQMNSLKPEDTAVYYCAARYVTTKGSFVVGYGYWGQGTQVTVSS | high polyreactivity
QVQLVESGGGLVQAGGSLSLSCAASGRIFSLNVMGWYSQARGKERELVATIRGRGTSTYYADSVKGRFTISRDTAKNTVYLQMNSLKPEDTAVFYCAARGHGAYGYWGQGTQVTVSS | low polyreactivity
QVQLVESGGGLVQAGGSLSLSCAASGRIFSYNDMGWYRQAPGKERELVAAITSNDGSTYYADSVKGRFTISRDNAKNTVYLQMNSLKPVDSAVSYCTADVLFLSSYGYDYWGQGTQVTVSS | low polyreactivity
QVQLVESGGGLVQAGGSLSLSCAASGRIFYGYVMVWYRQAPGKERELVAAITWSGSRTYYADSVKGRFTISRDNAKNTVFLQMNSLKPADTAVYYCAARIPSDGYYYWGQGTQVTVSS | high polyreactivity
QVQLVESGGGLVQAGGSLSLSCAASGRIINWYAMGWYRQATGKERELVARISSGDITSYADSVKGRFTISRDNAKNTVYLQMYSLKPEDTAVSYCAARQWFLYDYWGQGTQVTVSS | low polyreactivity
